The text below walks through data of patent US5292651.

Data set [1] concerns the target T1, NaeI restriction endonuclease (recombinant, crude extract of NEB#777) T2A (Nocardia aerocolonigenes) (UniProt P50187).
T1 sequence: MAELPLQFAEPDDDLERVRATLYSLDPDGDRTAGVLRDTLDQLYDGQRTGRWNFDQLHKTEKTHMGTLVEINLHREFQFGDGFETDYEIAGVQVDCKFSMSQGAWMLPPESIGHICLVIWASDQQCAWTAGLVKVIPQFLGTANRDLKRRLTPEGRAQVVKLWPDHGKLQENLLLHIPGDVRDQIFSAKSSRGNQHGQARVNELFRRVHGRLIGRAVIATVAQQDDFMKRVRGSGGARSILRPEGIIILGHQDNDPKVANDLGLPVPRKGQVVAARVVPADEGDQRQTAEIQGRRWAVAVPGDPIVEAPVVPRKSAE
Description: cleavage_in_vitro. Particulars: PstI-codigested pBR322, NEBuffer 1, 37 C, 1 h; after overnight IPTG induction.

The target of data set [2] is T2, NaeI restriction endonuclease (recombinant, from pCTnaeIR16-1) T2A (Nocardia aerocolonigenes) (UniProt P50187).
T2 sequence: T1 sequence
Description: cleavage_in_vitro. The conditions noted are these: 60 U, 4 h, 37 C, 10 mM MgCl2; nonspecific nicking test.

A value given as a limit tells only on which side of the number the result lay.

On to pBR322 plasmid DNA, for which, in data set [1], the activity was 77000 U/g cells.

On to phiX174 RFI DNA, for which the activity (% RFI converted to RFII) in data set [2] was less than 5.
